Results: patent US20220064256A1 (published 2022)

T1: CD22 peptide on HLA-A*02:01 (human)
T1 peptide: FLSNDTVQL

T2: CD22 peptide on HLA-A*02:10 (human)
T2 peptide: FLSNDTVQL

T3: CD22 peptide on HLA-A*02:08 (human)
T3 peptide: FLSNDTVQL

T4: CD22 peptide on HLA-A*02:02 (human)
T4 peptide: FLSNDTVQL

T5: CD22 peptide on HLA-A*02:07 (human)
T5 peptide: FLSNDTVQL

T6: CD22 peptide on HLA-A*02:05 (human)
T6 peptide: FLSNDTVQL

T7: CD22 peptide on HLA-A*02:04 (human)
T7 peptide: FLSNDTVQL


How the values were obtained:
[1] = molecular target: CD22 peptide … (SEQ ID NO: 1) in the context of HLA-A*02:01 (human); test: cell-based or functional assay
[2] = molecular target: T1, CD22 peptide on HLA-A*02:01; test: killing
[3] = molecular target: T2, CD22 peptide on HLA-A*02:10; test: cytokine release
[4] = molecular target: T3, CD22 peptide on HLA-A*02:08; test: cytokine release
[5] = molecular target: T4, CD22 peptide on HLA-A*02:02; test: cytokine release
[6] = molecular target: T5, CD22 peptide on HLA-A*02:07; test: cytokine release
[7] = molecular target: T6, CD22 peptide on HLA-A*02:05; test: cytokine release
[8] = molecular target: T7, CD22 peptide on HLA-A*02:04; test: cytokine release
[9] = molecular target: T1, CD22 peptide on HLA-A*02:01; test: cytokine release

Kd value by peptide titration on T2 cells (50% of maximal IFNγ release, ELISA) [1] | binding result [3] | binding result [4] | binding result [5] | binding result [6] | binding result [7] | binding result [8] | binding result [9] | Binder | binding result [2]
1.1e-08 | recognises | no recognition | no recognition | recognises | recognises | recognises |  | CD22 TCR (TCR, V domains shown) Valpha: EDKVVQSPLSLVVHEGDTVTLNCSYEVTNFRSLLWYKQEKKAPTFLFMLTSSGIEKKSGRLSSILDKKELFSILNITATQTGDSAVYLCAVDNQGGKLIFGQGTELSVKP Vbeta: GAVVSQHPSWVICKSGTSVKIECRSLDFQATTMFWYRQFPKQSLMLMATSNEGSKATYEQGVEKDKFLINHASLTLSTLTVTSAHPEDSSFYICSARPSGVYNEQFFGPGTRLTVL | recognises
2.2e-08 |  |  |  |  |  |  | recognises | CD22 TCR 3225 (TCR, V domains shown) Valpha: EDKVVQSPLSLVVHEGDTVTLNCSYEVTNFRSLLWYKQEKKAPTFLFMLTSSGIEKKSGRLSSILDKKELFSILNITATQTGDSAVYLCAVDNQGGKLIFGQGTELSVKP Vbeta: GAVVSQHPSWVICKSGTSVKIECRSLDFQATTMFWYRQFPKQSLMLMATSNEGSKATYEQGVEKDKFLINHASLTLSTLTVTSAHPEDSSFYICSAREAGVYNEQFFGPGTRLTVL | 
